Results from patent US20220220215A1 (CRESCENDO BIOLOGICS, published 2022).
Values belong to the binder of their own block, whether it stands above or below them.

Legend:
[1] = target: T1, human PD-1 expressed on CHO cells (human, UniProt Q15116 21-288); assay: FMAT/Mirrorball on CHO huPD1 cells
T1 construct: also called CHO huPD1; CHO human PD1 cells
Description: Binding of His-tagged molecules to CHO human CD137, CHO parent and CHO human PD1 cells was assessed using Fluorescence Microvolume Assay Technology (FMAT). All reagents were prepared in FMAT assay buffer (pH 7.4) containing PBS, 0.1% Bovine Serum Albumin, 0.05% Sodium Azide. […] Fluorescence emission was then measured on the TTP Mirrorball plate reader in the FL2 (502 nm-537 nm) and FL5 (677-800 nm) channels following excitation at 488 nm and 640 nm. Data was gated on FL5 perimeter and peak intensity and the FL2 median mean fluorescence intensity of the gated data used for determination of VH binding. Monovalent CD137 specific Humabody® VH, and trispecific molecules with a CD137 binding arm bound to CHO CD137 expressing cells. Trispecific Humabody® VH, with a PD1 binding arm bound to PD1 expressing cells.

[2] = target: T2, human CD137 expressed on CHO cells (human, UniProt Q07011 18-255); assay: FMAT/Mirrorball on CHO huCD137 cells
T2 construct: also called CHO huCD137; CHO human CD137 cells
Outline: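 His-tagged VH molecules bound to CHO cells expressing human PD-1 or human CD137, with CHO parent cells as control, in PBS pH 7.4, 0.1% BSA, 0.05% sodium azide. Read by FMAT on Mirrorball (ex 488/640 nm); binding taken as FL2 median fluorescence intensity of FL5-gated events.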

[3] = target: T1, human PD-1 expressed on CHO cells; assay: flow cytometry on CHO huPD1 cells
[4] = target: T2, human CD137 expressed on CHO cells; assay: flow cytometry on CHO huCD137 cells
[5] = target: T3, recombinant Fc-tagged ectodomain of cynomolgus CD137 (R&D S9324-4b) (cynomolgus macaque, UniProt A9YYE7 24-186); assay: SPR, Biacore 8K, single-cycle kinetics; Fc-tagged ectodomain captured on Protein G chip; 1:1 model
T3 construct: Bought protein; also called Cyno CD137; cynomolgus macaque CD137; not shown: Fc tag and any linker to it
Description: (§1) Binding of Humabody® VH constructs was measured using a single-cycle kinetics method using the BIAcore 8K instrument with 90 second sample injections with a sample concentration range of low nanomolar to high nanomolar. […] The Protein G sensor surface was regenerated with a 20 second injection of 10 mM Glycine buffer, pH 1.5 (GE Healthcare BR100354). Data were analysed using a 1:1 binding model in Biacore Insight Evaluation software, including Humabody® VH constructs with two PD-1 arms.

[6] = target: T4, recombinant Fc-tagged ectodomain of human PD1 (Acro Biosystems PD1-H5257) (human, UniProt Q15116 25-170); assay: as above
T4 construct: Bought protein; not shown: Fc tag
Description: as §1

[7] = target: T5, recombinant Fc-tagged ectodomain of cynomolgus PD1 (Acro Biosystems PD1-C5254) (cynomolgus macaque, UniProt B0LAJ3 25-170); assay: as above
T5 construct: Bought protein; also called Cyno PD1; cynomolgus macaque PD1; not shown: Fc tag and any linker to it
Description: as §1

[8] = target: T6, recombinant Fc-tagged ectodomain of human CD137 (Acro Biosystems 41B-H5258) (human, UniProt Q07011 24-186); assay: as above
T6 construct: Bought protein; not shown: Fc tag
Description: as §1

[9] = target: human CD137 expressed on cells (Jurkat human CD137 NF-kB luciferase reporter cells; human CD8+ T cells) (human, UniProt Q07011 24-255); assay: cell-based or functional assay
[10] = target: T7, Rhesus CD137-Fc tagged protein (rhesus, UniProt H9Z8K9 24-186); assay: BLI (Octet RED384), CD137-Fc on Protein G sensor, 1:1 model
T7 construct: extracellular domain; The Octet paragraph gives no catalogue number; also called rhCD137-Fc
Description: (§2) Binding kinetics of purified monovalent VH molecules were measured on a ForteBio Octet RED 384 instrument. Human and Rhesus CD137-Fc tagged protein was diluted to 5 μg/ml in kinetics buffer (0.05% Tween, 1×PBS) and coupled to Protein G biosensors (ForteBio cat no. 18-5082) via the Fc tag. VH were serially diluted (typically 1:2 dilution series starting with 200 nM, VH at the highest concentration) and binding to the CD137-Fc-coupled Protein G biosensors measured. Binding kinetics were determined from the (blank subtracted) sensor gram trace using 1:1 binding models and ForteBio Octet Data Analysis 9.0 software. Example kinetic and binding affinity data obtained is shown Table 18 (monovalent VH).

[11] = target: T8, human CD137-Fc recombinant protein (Acro Biosystems 41B-H5258) (human, UniProt Q07011 24-186); assay: as above
T8 construct: Bought protein; The Octet paragraph gives no catalogue number for its human CD137-Fc; also called hCD137-Fc; CD137-Fc tagged protein
Description: as §2

B1: TPP-972: CD137A-6GS-PDA-6GS-HSA2-His (bispecific antibody)
chain: EVQLVESGGGLVQPGGSLRLSCAASGFTLSNYWMNWVRQAPGKGLEWVANINQDGSERYYVDSVKGRFTISRDNAKNSLYLQMNSLRAEDTAVYYCARGGEGYGVDHYGLDVSGQGTTVTVSSGGGGSGGGGSGGGGSGGGGSGGGGSGGGGSEVQLVESGGGLVQPGRSLRLSCAASGFTFDDYALHWVRQAPGKDLEWVSGISWNGGSYGYADSVKGRFTISRDNAKNSLYLQMNSLRAEDTALYYCVREKGPGLTGSTADYYGLDAWGQGTMVTVSSGGGGSGGGGSGGGGSGGGGSGGGGSGGGGSEVQLVESGGGLVKPGGSLRLSCAASGFTFSNYNMNWVRQAPGKGLEWVSSISSAGTHIYYADSVKGRFTISRDNAKNSLYLQMNSLRAEDTAVYYCARDPHSTGWYKDFDYWGQGTLVTVSSAAAHHHHHH
notes: Single-chain VH fusion (CD137 VH, PD-1 VH, HSA VH), His tag
EC50 [1]: 0.15 nM
EC50 [2]: 0.0533 nM
EC50 [3]: 33 nM

B3: TPP-969: PDA-6GS-HSA2-6GS-172E1-13-His (bispecific antibody)
chain: EVQLVESGGGLVQPGRSLRLSCAASGFTFDDYALHWVRQAPGKDLEWVSGISWNGGSYGYADSVKGRFTISRDNAKNSLYLQMNSLRAEDTALYYCVREKGPGLTGSTADYYGLDAWGQGTMVTVSSGGGGSGGGGSGGGGSGGGGSGGGGSGGGGSEVQLVESGGGLVKPGGSLRLSCAASGFTFSNYNMNWVRQAPGKGLEWVSSISSAGTHIYYADSVKGRFTISRDNAKNSLYLQMNSLRAEDTAVYYCARDPHSTGWYKDFDYWGQGTLVTVSSGGGGSGGGGSGGGGSGGGGSGGGGSGGGGSEVQLVESGGGVVQPGGSLRLSCAASGFTFSNYGMHWVRQAPGKGLEWVAVISNDGNTKTYADSVKGRFTISRDNSKNTLYLQMNSLRAEDTAVYYCAQDETTTVTASYYFDYWGQGTLVTVSSAAAHHHHHH
notes: Single-chain VH fusion (PD-1 VH, HSA VH, CD137 VH), His tag
EC50 [1]: 0.142 nM
EC50 [2]: 0.171 nM
EC50 [4]: 11.6 nM

B5: 003BB172-E01-1 (VHH)
VHH: EVQLVESGGGLVQPGGSLRLSCAASGFTFSNYGMHWVRQAPGKGLEWVAVISNDGNTKTYADSVKGRFTISRDNSKNMLYLQMTSLRTEDTAVYYCAQDETTTVTASYYFDYWGQGTLVTVSS
notes: Human VH single domain antibody, monovalent
EC50 [2]: 1.35 nM
Kd [10]: 21.9 nM
koff [10]: 0.00267 s⁻¹
kon [10]: 122000 M⁻¹ s⁻¹
Kd [11]: 17.8 nM
koff [11]: 0.00214 s⁻¹
kon [11]: 120000 M⁻¹ s⁻¹

B6: 003BB172-E01-3 (VHH)
VHH: EVQLVESGGGLVQPGGSLRLSCAASGFTFSNYGMHWVRQAPGKRLEWVAVISNDGNTKTYADSVKGRFTISRDNSKNMLYLQMNSLRTEDTAVYYCAQDETTTVTASYYFDYWGQGTLVTVSS
notes: as for B5
EC50 [2]: 1.06 nM
Kd [10]: 24.8 nM
koff [10]: 0.00157 s⁻¹
kon [10]: 55300 M⁻¹ s⁻¹
Kd [11]: 24.5 nM
koff [11]: 0.00161 s⁻¹
kon [11]: 66000 M⁻¹ s⁻¹

B7: 003BB172-E01-2 (VHH)
VHH: EVQLVESGGGLVQPGGSLRLSCAASGFTFSNYGMHWVRQAPGKRLEWVAVISNDGNTKTYADSVKGRFTISRDNSKNTLYLQMTSLRTEDTAVYYCAQDETTTVTASYYFDYWGQGTLVTVSS
notes: as for B5
EC50 [2]: 1.74 nM
Kd [10]: 25.9 nM
koff [10]: 0.00159 s⁻¹
kon [10]: 61300 M⁻¹ s⁻¹
Kd [11]: 18.6 nM
koff [11]: 0.00137 s⁻¹
kon [11]: 73200 M⁻¹ s⁻¹

B8: 003BB172-E01-4 (VHH)
VHH: EVQLVESGGGLVQPGGSLRLSCAASGFTFSNYGMHWVRQAPGKGLEWVAVISNDGNTKTYADSVKGRFTISRDNSKNTLYLQMTSLRTEDTAVYYCAQDETTTVTASYYFDYWGQGTLVTVSS
notes: as for B5
EC50 [2]: 1.33 nM
Kd [10]: 32.2 nM
koff [10]: 0.00216 s⁻¹
kon [10]: 67100 M⁻¹ s⁻¹
Kd [11]: 25.7 nM
koff [11]: 0.00184 s⁻¹
kon [11]: 71600 M⁻¹ s⁻¹

The next lines start with the values.

EC50 [3]: 44.8 nM
B2: TPP-1293 (PDBlocker1.92-6GS- CD137A -6GS-HSA2) (bispecific antibody)
chain: EVQLVESGGGLVKPGGSLRLSCAASGFTFSDESMTWMRQAPGKGLEWVSYISSGGGVKFYADSVKGRFTISRDNAKNSLYLQMNSLRAEDTAVYYCAREAPLRLGESPHDAFDISGQGTMVTVSSGGGGSGGGGSGGGGSGGGGSGGGGSGGGGSEVQLVESGGGLVQPGGSLRLSCAASGFTLSNYWMNWVRQAPGKGLEWVANINQDGSERYYVDSVKGRFTISRDNAKNSLYLQMNSLRAEDTAVYYCARGGEGYGVDHYGLDVSGQGTTVTVSSGGGGSGGGGSGGGGSGGGGSGGGGSGGGGSEVQLVESGGGLVKPGGSLRLSCAASGFTFSNYNMNWVRQAPGKGLEWVSSISSAGTHIYYADSVKGRFTISRDNAKNSLYLQMNSLRAEDTAVYYCARDPHSTGWYKDFDYWGQGTLVTVSS

Kd [5]: 0.543 nM
koff [5]: 0.00017 s⁻¹
kon [5]: 313000 M⁻¹ s⁻¹
Kd [6]: 7.77 nM
koff [6]: 0.00214 s⁻¹
kon [6]: 276000 M⁻¹ s⁻¹
Kd [7]: 16.9 nM
koff [7]: 0.00494 s⁻¹
kon [7]: 293000 M⁻¹ s⁻¹
Kd [8]: 0.295 nM
koff [8]: 9.85e-05 s⁻¹
kon [8]: 334000 M⁻¹ s⁻¹
Jurkat-CD137/CHO-PD-1 Reporter Assay EC50 [9]: 0.0583 nM
B4: TPP-1247 CD137A-6GS-HSA3-6GS-PD138G7(G109D) (bispecific antibody)
chain: EVQLVESGGGLVQPGGSLRLSCAASGFTLSNYWMNWVRQAPGKGLEWVANINQDGSERYYVDSVKGRFTISRDNAKNSLYLQMNSLRAEDTAVYYCARGGEGYGVDHYGLDVSGQGTTVTVSSGGGGSGGGGSGGGGSGGGGSGGGGSGGGGSEVQLLESGGGLVKPGGSLRLSCAASGFTVSSYTMNWVRQAPGKGLEWVSSISSSGRYIYYADSVKGRFTISRDNAKNSLYLQMNSLRAEDTAVYYCARDPRMVGNPHEFDIWGQGTMVTVSSGGGGSGGGGSGGGGSGGGGSGGGGSGGGGSEVQLVESGGGVVRPGGSLRLSCAASGFTFDDYAMSWVRQAPGKGLEWVSGITWNGGSTGYADSVKDRFTISRDNAKNSLYLQMNSLRAEDTALYYCVRDKYSYAWSYDDFDIWGQGTMVTVSS

Kd [5]: 0.728 nM
koff [5]: 0.000263 s⁻¹
kon [5]: 361000 M⁻¹ s⁻¹
Kd [6]: 87.6 nM
koff [6]: 0.0762 s⁻¹
kon [6]: 869000 M⁻¹ s⁻¹
Kd [7]: 102 nM
koff [7]: 0.0505 s⁻¹
kon [7]: 493000 M⁻¹ s⁻¹
Kd [8]: 0.471 nM
koff [8]: 0.000179 s⁻¹
kon [8]: 381000 M⁻¹ s⁻¹
Jurkat-CD137/CHO-PD-1 Reporter Assay EC50 [9]: 0.113 nM
B9: TPP-1245 CD137A-6GS-PDA2-6GS-HSA2 (bispecific antibody)
chain: EVQLVESGGGLVQPGGSLRLSCAASGFTLSNYWMNWVRQAPGKGLEWVANINQDGSERYYVDSVKGRFTISRDNAKNSLYLQMNSLRAEDTAVYYCARGGEGYGVDHYGLDVSGQGTTVTVSSGGGGSGGGGSGGGGSGGGGSGGGGSGGGGSEVQLVESGGGVVRPGGSLRLSCAASGFTFDDYAMSWVRQAPGKGLEWVSGITWNAGSTGYADSVKGRFTISRDNAKNSLYLQMNSLRAEDTALYYCVRDKYSYAWSYDDFDIWGQGTMVTVSSGGGGSGGGGSGGGGSGGGGSGGGGSGGGGSEVQLVESGGGLVKPGGSLRLSCAASGFTFSNYNMNWVRQAPGKGLEWVSSISSAGTHIYYADSVKGRFTISRDNAKNSLYLQMNSLRAEDTAVYYCARDPHSTGWYKDFDYWGQGTLVTVSS
